From paper PMC4141822
Numbering of substitutions follows the chain as printed.

What was measured:
Conditions in all cases: protein: recombinant; tags: none stated (pET24a); label: 5' 32P
Csa5 Y29A = molecular target: T1, Csa5 Y29A (Thermoproteus tenax Kra1, UniProt G4RJZ0 1-130, Y29A); test: EMSA; shift from 15 uM; EMSA: 100 mM HEPES/KOH pH 7, 10 mM beta-mercaptoethanol, 37 C 30 min, 6% native TBE PAGE; MST: 50 mM Tris-HCl pH 7.4, 150 mM NaCl, 0.05% Tween-20, 37 C 30 min
T1 sequence: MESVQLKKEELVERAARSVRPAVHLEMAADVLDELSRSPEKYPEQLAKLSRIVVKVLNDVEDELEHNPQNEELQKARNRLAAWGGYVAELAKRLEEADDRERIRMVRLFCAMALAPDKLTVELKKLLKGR

Csa5 D33A = molecular target: T2, Csa5 D33A (Thermoproteus tenax Kra1, UniProt G4RJZ0 1-130, D33A); test: as above
T2 sequence: T1 sequence with A29Y, D33A

Csa5 D30A/D33A = molecular target: T3, Csa5 D30A/D33A (Thermoproteus tenax Kra1, UniProt G4RJZ0 1-130, D30A;D33A); test: EMSA; defined shift from 30 uM; EMSA: 100 mM HEPES/KOH pH 7, 10 mM beta-mercaptoethanol, 37 C 30 min, 6% native TBE PAGE; MST: 50 mM Tris-HCl pH 7.4, 150 mM NaCl, 0.05% Tween-20, 37 C 30 min
T3 sequence: T1 sequence with A29Y, D30A, D33A

B1: non-target (NT) ssDNA 97 nt (ssDNA)
DNA: GTCGACTAATACGACTCACTATAGGCCTATCGCTTGTCCAACCGGGCTCCTCTATATGTCGTCATTAGCTTACCGCTGAGCAATAACTAGCAAGCTT
- binding signal (Csa5 Y29A): ~10 % of WT binding
- binding signal (Csa5 D33A): ~18 % of WT binding
- binding signal (Csa5 D30A/D33A): ~4 % of WT binding
